Experimental findings from patent US20030229203 are described below.

This data set has as its target T1, RANTES(1-68), P13501.
T1 chain: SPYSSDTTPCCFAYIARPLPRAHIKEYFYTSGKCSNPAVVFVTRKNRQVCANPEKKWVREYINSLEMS

B1: enzymatically deficient (E-) recombinant soluble human CD26 (sCD26) (protein)
chain: NKGTDDATADSRKTYTLTDYLKNTYRLKLYSLRWISDHEYLYKQENNILVFNAEYGNSSVFLENSTFDEFGHSINDYSISPDGQFILLEYNYVKQWRHSYTASYDIYDLNKRQLITEERIPNNTQWVTWSPVGHKLAYVWNNDIYVKIEPNLPSYRITWTGKEDIIYNGITDWVYEEEVFSAYSALWWSPNGTFLAYAQFNDTEVPLIEYSFYSDESLQYPKTVRVPYPKAGAVNPTVKFFVVNTDSLSSVTNATSIQITAPASMLIGDHYLCDVTWATQERISLQWLRRIQNYSVMDICDYDESSGRWNCLVARQHIEMSTTGWVGRFRPSEPHFTLDGNSFYKIISNEEGYRHICYFQIDKKDCTFITKGTWEVIGIEALTSDYLYYISNEYKGMPGGRNLYKIQLSDYTKVTCLSCELNPERCQYYSVSFSKEAKYYQLRCSGPGLPLYTLHSSVNDKGLRVLEDNSALDKMLQNVQMPSKKLDFIILNETKFWYQMILPPHFDKSKKYPLLLDVYAGPCSQKADTVFRLNWATYLASTENIIVASFDGRGSGYQGDKIMHAINRRLGTFEVEDQIEAARQFSKMGFVDNKRIAIWGWAYGGYVTSMVLGSGSGVFKCGIAVAPVSRWEYYDSVYTERYMGLPTPEDNLDHYRNSTVMSRAENFKQVEYLLIHGTADDNVHFQQSAQISKALVDVGVDFQAMWYTDEDHGIASSTAHQHIYTHMSHFIKQCFSLP
Regarding B1, the “hydrolysis of rhRANTES by sCD26 (ES-MS of cleavage products)” value is “shortened RANTES was not generated by incubation of the chemokine with a mutant sCD26 deficient in enzyme activity”.
